The record followed here is patent publication US20170334973A1 (INTEGRATED BIOTHERAPEUTICS, published 2017).

Positions count from the first letter of the chain named. Bounds are passed on as bounds.

The term EC50 denotes the concentration needed to bring the measured effect to its halfway point.

Experiment [1] concerns the target T1, SUDV GPddmuc (Sudan virus (SUDV), UniProt Q66814 33-650). Kind of experiment: ELISA. For orientation: In an ELISA, binding on a coated surface is turned into a signal by an enzyme label.
For experiment [2], the target named is T2, EBOV GPddmuc (Ebola virus (EBOV), UniProt Q05320 33-650). Kind of experiment: ELISA.
In experiment [3] the target is T3, MARV GPddmuc (Marburg virus (MARV), UniProt P35253 19-648). Kind of experiment: ELISA.
The target in experiment [4] is T3, MARV GPddmuc. Kind of experiment: native ELISA.
In experiment [5] the target is T1, SUDV GPddmuc. Kind of experiment: native ELISA.
For experiment [6], the target named is T2, EBOV GPddmuc. Kind of experiment: native ELISA.

B1: FVM02P (antibody, V domains shown)
VH: EVQLVESGGGLVQPGGSLRLSCAASGFTGFTFSDYAFYWVRQAPGKGLEWVGFIRGKAYGGTADYAASVKGRFTISRDNSKNTAYLQMSSLKTEDSAVYYCTSQGVTVATPYHWGQGVLVTVSS
VL: DIVLTQSPLSLPVTPGEPASISCRSSQSLLHSGGKTYLYWYLQKPGQSPQLLIHEVSNRASGVPDRFSGSGSGTDFTLKISRVEAEDVGVYYCMQGIQLPLTFGGGTKVEIKR
Regarding B1, the EC50 is 0.158 nM in the experiment with SUDV GPddmuc [1], 0.127 nM with EBOV GPddmuc [2] and greater than 10 nM with MARV GPddmuc [3].

B2: FVM28 (antibody, V domains shown)
VH: EVQLVQSGAEVKRPGESLKISCQTSGYRFTSSWISWVRQMPGKGLEWMGAIDPSDSETRYSPSFQGQVTISADKSISTAYLKWSSLKASDTATYYCVKGSETWGQGVLVTVSS
VL: QAALTQPASLSASPGASASLTCTFSGGINVAGYHILWYQQKPGSPPRYLLRYKSDSEKDQGSGVPSRFSGSKDASANRGILRISGLQSEDEADYYCAIGHSSSGWVFGGGTRLTVL
Consider B2, for which the binding result with MARV GPddmuc [4] is reported as “no binding”. In addition, the EC50 with SUDV GPddmuc [1] and with EBOV GPddmuc [2] was 0.047 nM each time.

B3: FVM33 (antibody, V domains shown)
VH: QVQLVQSGAEVKRPGESLKISCKTSRYSFTSSWIGWVRQMPGKGLEWLGSIYPGDSDTRYNPSFQGHVTISADKSVTTTYLKWSSLKASDTATYYCVKGSETWGQGVLVTVSS
VL: QPVLTQPASLSASPGASASLTCTFSGGINVAGYNILWYQQKAGSPPRYLLRYKSDSTKDQGSGVPSRFSGSKDASANTGILRISGLQSEDEADYYCAIGHSSGWIFGGGTRLTVL
In the case of B3, in the experiment with MARV GPddmuc [4], the binding result is recorded as “no binding”. Also, the EC50 with SUDV GPddmuc [1] and with EBOV GPddmuc [2] was 0.04 nM throughout.

B4: FVM21 (antibody, V domains shown)
VH: EVQLVESGAEVKRPGESLTISCKTSGYSFTDSWVAWVRQMPGKGLEWLGSIYPGDSETKYNPSFQGHVTISADKSISTTYLQWSSLRASDTATYYCVKGADDWGPGLLVTVSS
VL: B3 VL with Q1S, P2S, V3E, T57D, D59G
As for B4, the binding result in the experiment with MARV GPddmuc [4] is listed as “no binding”. For the same molecule, the EC50 in the experiment with SUDV GPddmuc [1] and with EBOV GPddmuc [2] was 0.067 nM throughout.

B5: FVM12 (antibody, V domains shown)
VH: B3 VH with Q1E, K19T, R26E, S31G, G35S, L48M, N61S, H67Q
VL: B3 VL with P14L, A42P, Y48F, T57D, K58N, D59V, R67H, A76T, I105V
B5: the binding result in the experiment with MARV GPddmuc [4] is recorded as “no binding”. The EC50 was 0.081 nM in the experiment with SUDV GPddmuc [1] and 0.091 nM with EBOV GPddmuc [2].

B6: FVM23 (antibody, V domains shown)
VH: QVQLVQSGAEVKRPGESLTISCKTSGYSFTGSWISWVRQMPGKGLEWMGSIYPGDSDTTYNPSFQGHVTISADKSISTAYLQWTSLKASDTATYYCVKGSETWGQGVLVTVSS
VL: B3 VL with Q1S, P2Y, V3E, W104L, G108A
As to B6, the binding result with MARV GPddmuc [4] was “no binding”. Also, the EC50 came to 0.08 nM with SUDV GPddmuc [1] and 0.087 nM in the experiment with EBOV GPddmuc [2].

B7: FVM24 (antibody, V domains shown)
VH: EVQLVQSGAEVKRPGESLKISCKTSGYSFTDSWVAWVRQMPGKGLEWMGSIYPGDFQTRYNPSFQGHVTLSADKSISTTYLQWSSLKASDTATYYCVKGSETWGPGVLVTVSS
VL: B3 VL with Q1S, P2S, V3G, A74V, E89D
With B7, the binding result with MARV GPddmuc [4] was “no binding”. For the same molecule, the EC50 with SUDV GPddmuc [1] is 0.12 nM; with EBOV GPddmuc [2], 0.153 nM.

B8: FVM13 (antibody, V domains shown)
VH: B3 VH with Q1E, R26G, S28T, G35S, K74T, V76I, T77I, Y80H, K82Q
VL: B3 VL with Q1K, V3M, A8T
As to B8, the binding result in the experiment with MARV GPddmuc [4] is on record as “no binding”. Moreover, the concentration for a half-maximal effect (EC50) with SUDV GPddmuc [1] turned out to be 0.051 nM; with EBOV GPddmuc [2], 0.062 nM.

B9: FVM19 (antibody, V domains shown)
VH: B3 VH with K19T, R26G, S31D, I34V, G35A, R59K
VL: B3 VL with Q1K, V3M, N34H, L36F, A42P, T57D, D59G, W104L, I105L
Turning to B9, the binding result with MARV GPddmuc [4] is reported as “no binding”. The EC50 was 0.267 nM in the experiment with SUDV GPddmuc [1] and 0.12 nM in the experiment with EBOV GPddmuc [2].

B10: FVM32 (antibody, V domains shown)
VH: B3 VH with K19R, R26G, S31D, I34V, G35A, N61S, H67Q, V76I, T79A
VL: B3 VL with S25N, N29T, A31P, N34D, A42S, A76T
Take B10: the binding result in the experiment with MARV GPddmuc [4] is “no binding”. Also, the EC50 was found to be 0.127 nM in the experiment with SUDV GPddmuc [1] and 0.073 nM in the experiment with EBOV GPddmuc [2].

B11: FVM25 (antibody, V domains shown)
VH: EVQLVHSGAEVKRPGESLTISCKTSGYTFTDYWIAWVRQMPGKGLEWMASIYPDDSDTRYNPSFQGHVTISADKSISTTYLQWSSLRASDTATYYCVKGSETWGQGVLVTVSS
VL: B3 VL with P2L, A16T, A42P, Y48F, T57D, K58N, D59V, R67H, A76T, I105V
On to B11, for which the binding result with MARV GPddmuc [4] is recorded as “no binding”. Further, the EC50 in the experiment with SUDV GPddmuc [1] came to 0.18 nM; with EBOV GPddmuc [2] it was 0.12 nM.

B12: FVM18 (antibody, V domains shown)
VH: B3 VH with R26G, S31N, S32I, G35S, D57E, R59K
VL: B2 VL with Q1N, A2F, A3M
As for B12, the binding result with MARV GPddmuc [4] is recorded as “no binding”. Moreover, the EC50 was 0.108 nM with SUDV GPddmuc [1] and 0.101 nM with EBOV GPddmuc [2].

B13: FVM37 (antibody, V domains shown)
VH: B3 VH with R26G, S28R, G35S, D57E, R59K
VL: B3 VL with Q1S, P2S, V3E
For the molecule B13, the binding result in the experiment with MARV GPddmuc [4] is reported as “no binding”. The figures for the EC50 with SUDV GPddmuc [1] and with EBOV GPddmuc [2] were 0.033 nM and 0.047 nM, respectively.

B14: FVM40 (antibody, V domains shown)
VH: B3 VH with Q1E, K19T, R26G, S31D, G35S, L48M, D57E, R59K
VL: B3 VL with V3M
On to B14, for which the binding result in the experiment with MARV GPddmuc [4] is listed as “no binding”. Moreover, the figures for the EC50 with SUDV GPddmuc [1] and with EBOV GPddmuc [2] were 0.033 nM and 0.04 nM, respectively.

B15: FVM35 (antibody, V domains shown)
VH: B3 VH with Q1E, K19T, R26G, S32Y, G35T, D57E, R59K
VL: B3 VL
As for B15, the binding result in the experiment with MARV GPddmuc [4] is reported as “no binding”. Further, the EC50 with SUDV GPddmuc [1] and in the experiment with EBOV GPddmuc [2] was 0.033 nM throughout.

B16: FVM38 (antibody, V domains shown)
VH: B3 VH with K19T, R26G, S31D, L48M, G49A, G54D, D57E, R59K
VL: B3 VL
Take B16: in the experiment with MARV GPddmuc [4], the binding result is given as “no binding”. Besides, the EC50 turned out to be 0.053 nM with SUDV GPddmuc [1] and 0.06 nM with EBOV GPddmuc [2].

B17: FVM41 (antibody, V domains shown)
VH: B3 VH with Q1E, R26G, S31D, S32T, G35S, L48M, D57E, R59K
VL: B3 VL with Q1E, P2T, L4V, W104V, I105L
Regarding B17, the binding result with MARV GPddmuc [4] is “no binding”. For the same molecule, the values for the EC50 with SUDV GPddmuc [1] and with EBOV GPddmuc [2] were 0.053 nM and 0.047 nM, respectively.

B18: FVM34 (antibody, V domains shown)
VH: B3 VH with Q1E, Q6E, K19T, R26G, S31D, I34V, G35S, L48M, D57E, R59K
VL: B3 VL with N34Y, L36H, A42P, T57D, D59H, I105V
With B18, the binding result with MARV GPddmuc [4] is “no binding”. Besides, the EC50 with SUDV GPddmuc [1] and with EBOV GPddmuc [2] was 0.027 nM each time.

B19: FVM03 (antibody, V domains shown)
VH: QVQLQESGPVLVKPSETLSLTCAVSGYSISSAYAWSWIRQPPGKGLEWVGYVGSSSDYNPSLKSRVTISRDTSKNRIFLNLRSLTAADTAVYYCARDRANNSMDVWGRGVLVTVSS
VL: EIVLTQSPDSLGVSLGERVTINCKSSQSLLYSSNNKNYLAWYQQKPGQAPKLLIYWASTRESGVPNRFSGSGSGTDFTLTISGLQAEDVAVYYCQQYYSTPLTFGQGTKVEIKR
Turning to B19, the binding result with SUDV GPddmuc [5] and in the experiment with EBOV GPddmuc [6] was “no binding” in each case. In addition, the EC50 with MARV GPddmuc [3] is 0.306 nM.
